Test results as given in publication PMC4221783.

Key:
[1] = biological target: Vangl2 lacking the PDZ-binding motif at the C-terminal end; assay: co-IP
[2] = biological target: Vangl2 lacking the Prickle-binding domain (UniProt Q91ZD4); assay: co-IP
Vangl2 lacking the Prickle-binding domain, sequence (Q91ZD4 whole entry, the tested form may be a part): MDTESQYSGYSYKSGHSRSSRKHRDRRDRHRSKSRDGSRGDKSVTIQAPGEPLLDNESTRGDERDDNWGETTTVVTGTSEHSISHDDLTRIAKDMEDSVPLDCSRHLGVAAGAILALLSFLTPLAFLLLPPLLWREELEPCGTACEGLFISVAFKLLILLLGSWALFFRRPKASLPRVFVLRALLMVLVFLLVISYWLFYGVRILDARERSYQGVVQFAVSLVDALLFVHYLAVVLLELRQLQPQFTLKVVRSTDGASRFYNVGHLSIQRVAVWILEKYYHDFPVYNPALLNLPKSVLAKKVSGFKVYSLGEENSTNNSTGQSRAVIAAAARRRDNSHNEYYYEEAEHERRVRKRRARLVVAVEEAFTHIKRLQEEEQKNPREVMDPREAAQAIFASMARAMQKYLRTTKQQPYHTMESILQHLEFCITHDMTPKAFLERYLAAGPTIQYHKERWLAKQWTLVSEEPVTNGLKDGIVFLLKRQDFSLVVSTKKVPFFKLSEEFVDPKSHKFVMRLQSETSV

Vangl2 lacking the PDZ-binding motif at the C-terminal end, sequence (P84889 whole entry, the tested form may be a part): as the sequence (Q91ZD4 whole entry, the tested form may be a part) above

“E-cadherin (from UniProt P09803 157-884) (natural protein)” was tested, and the association in co-IP, percent of WT [1] was 87.1% and the association in co-IP, percent of WT [2] was 28.4%.
